# Results taken from paper PMC10953011, “Oxygen‐insensitive nitroreductase E. coli NfsA, but not NfsB, is inhibited by fumarate” (Proteins, 2022).
# B1: NfsA (Escherichia coli K-12) (protein)
# chain: MTPTIELICGHRSIRHFTDEPISEAQREAIINSARATSSSSFLQCSSIIRITDKALREELVTLTGGQKHVAQAAEFWVFCADFNRHLQICPDAQLGLAEQLLLGVVDTAMMAQNALIAAESLGLGGVYIGGLRNNIEAVTKLLKLPQHVLPLFGLCLGWPADNPDLKPRLPASILVHENSYQPLDKGALAQYDEQLAEYYLTRGSNNRRDTWSDHIRRTIIKESRPFILDYLHKQGWATR
# notes: untagged full-length
# How the values were obtained:
# purified protein [1] = substrate: NC(=O)C1=CN([C@@H]2O[C@H](COP(=O)(O)OP(=O)(O)OC[C@H]3O[C@@H](n4cnc5c(N)ncnc54)[C@H](OP(=O)(O)O)[C@@H]3O)[C@@H](O)[C@H]2O)C=CC1; experiment: purified protein; format: biochemical, Escherichia coli; settings: FMN; pH 7.0; 25.0 °C
# purified protein [2] = substrate: NC(=O)N/N=C/c1ccc([N+](=O)[O-])o1; experiment: purified protein; format: biochemical, Escherichia coli; settings: FMN; pH 7.0; 25.0 °C
protein,measurement,setting,value
B1,Km,purified protein [1],29 ± 6 µM
same,kcat,purified protein [1],25 ± 2 s⁻¹
same,kcat/Km,purified protein [1],860000 ± 100000 M⁻¹ s⁻¹
same,Km,purified protein [2],27 ± 6 µM
same,kcat,purified protein [2],25 ± 2 s⁻¹
same,kcat/Km,purified protein [2],930000 ± 100000 M⁻¹ s⁻¹
